Series [1] concerns HeLa Kyoto. Briefly: solubility change mitosis vs G1/S (difference of NP-40 vs SDS log2 ratios) (log2 ratio difference); higher = more soluble in mitosis.
For series [2], the system named is HeLa Kyoto. Briefly: solubility in G1/S (NP-40 vs SDS abundance) (log2 ratio); higher = more soluble. To be noted: cell cycle stage: G1/S.
Series [3] has as its system HeLa Kyoto. Briefly: melting temperature (median over replicates), in situ; higher = more thermally stable.
For series [4], the system named is HeLa Kyoto. Briefly: thermal stability score vs G1/S (z-score of summed log2 fold changes over temperatures); higher = more thermally stable than in G1/S.
[5] abbreviates: cell cycle stage: early G1 (4.5 h after nocodazole release).
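Wherever melting temperature (median over replicates), in situ is given: HeLa Kyoto cells synchronized by double thymidine or nocodazole block, proteins quantified by TMT10plex mass spectrometry, three independent biological replicates.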
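Wherever solubility change mitosis vs G1/S (difference of NP-40 vs SDS log2 ratios) is given: synchronized HeLa Kyoto cells (double thymidine block for G1/S, nocodazole release for mitosis), protein amounts in NP-40 versus SDS lysates quantified by mass spectrometry, three biological replicates.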
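Wherever solubility in G1/S (NP-40 vs SDS abundance) is given: HeLa Kyoto cells arrested at G1/S by double thymidine block, proteins quantified by TMT10plex mass spectrometry in mild NP-40 versus SDS extracts, three biological replicates.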
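Wherever thermal stability score vs G1/S (z-score of summed log2 fold changes over temperatures) is given: synchronized HeLa Kyoto cells, proteins quantified by TMT10plex mass spectrometry, three biological replicates, mitosis taken 0.5 h after nocodazole release, G1/S directly after double thymidine block.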

CHMP5, sequence (chain, as listed by the source): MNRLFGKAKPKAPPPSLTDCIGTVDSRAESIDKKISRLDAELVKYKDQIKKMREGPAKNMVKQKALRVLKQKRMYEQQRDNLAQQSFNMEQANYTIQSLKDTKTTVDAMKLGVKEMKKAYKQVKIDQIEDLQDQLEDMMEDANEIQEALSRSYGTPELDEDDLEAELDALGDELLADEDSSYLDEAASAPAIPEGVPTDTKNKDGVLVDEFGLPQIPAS
NPTN, sequence (chain, as listed by the source): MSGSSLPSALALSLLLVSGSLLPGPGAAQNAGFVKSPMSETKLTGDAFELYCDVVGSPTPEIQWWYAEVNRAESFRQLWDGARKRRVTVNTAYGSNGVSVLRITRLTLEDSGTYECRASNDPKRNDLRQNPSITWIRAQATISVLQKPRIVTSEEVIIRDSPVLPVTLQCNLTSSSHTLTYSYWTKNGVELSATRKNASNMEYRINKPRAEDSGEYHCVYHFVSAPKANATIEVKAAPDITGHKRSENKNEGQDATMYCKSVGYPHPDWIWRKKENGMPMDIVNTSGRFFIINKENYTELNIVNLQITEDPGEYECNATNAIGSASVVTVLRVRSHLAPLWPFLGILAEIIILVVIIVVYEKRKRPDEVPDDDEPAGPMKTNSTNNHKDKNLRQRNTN

On to CHMP5, for which the “solubility change mitosis (log2)” value in the series on HeLa Kyoto [1] is 0.751. For the same substance, the “solubility in G1/S (log2)” value in the series on HeLa Kyoto [2] came to 0.437. The melting temperature in the series on HeLa Kyoto [3] (cell cycle stage: G1/S) amounted to 55.2 °C; in the series on HeLa Kyoto [3] (cell cycle stage: mitosis), 52.2 °C. The figures for the thermal stability score in the series with HeLa Kyoto [4] (setting [5]) and with HeLa Kyoto [4] (cell cycle stage: mitosis) were -3.8 and -3.3, respectively.
With “MSSACDAGDHYPLHLLVWKNDYRQLEKELQGQNVEAVDPRGRTLLHLAVSLGHLESARVLLRHKADVTKENRQGWTVLHEAVSTGDPEMVYTVLQHRDYHNTSMALEGVPELLQKILEAPDFYVQMKWEFTSWVPLVSRICPNDVCRIWKSGAKLRVDITLLGFENMSWIRGRRSFIFKGEDNWAELMEVNHDDKVVTTERFDLSQEMERLTLDLMKPKSREVERRLTSPVINTSLDTKNIAFERTKSGFWGWRTDKAEVVNGYEAKVYTVNNVNVITKIRTEHLTEEEKKRYKADRNPLESLLGTVEHQFGAQGDLTTECATANNPTAITPDEYFNEEFDLKDRDIGRPKELTIRTQKFKAMLWMCEEFPLSLVEQVIPIIDLMARTSAHFARLRDFIKLEFPPGFPVKIEIPLFHVLNARITFGNVNGCSTAEESVSQNVEGTQADSASHITNFEVDQSVFEIPESYYVQDNGRNVHLQDEDYEIMQFAIQQSLLESSRSQELSGPASNGGISQTNTYDAQYERAIQESLLTSTEGLCPSALSETSRFDNDLQLAMELSAKELEEWELRLQEEEAELQQVLQLSLTDK [ANKRD13A]”, the “solubility change mitosis (log2)” value in the series with HeLa Kyoto [1] was -0.0203. In the series on HeLa Kyoto [2], the “solubility in G1/S (log2)” value was -0.139. The figures for the thermal stability score in the series with HeLa Kyoto [4] (setting [5]) and with HeLa Kyoto [4] (cell cycle stage: mitosis) were 0.86 and 0.416, respectively.
On to “MSSLGASFVQIKFDDLQFFENCGGGSFGSVYRAKWISQDKEVAVKKLLKIEKEAEILSVLSHRNIIQFYGVILEPPNYGIVTEYASLGSLYDYINSNRSEEMDMDHIMTWATDVAKGMHYLHMEAPVKVIHRDLKSRNVVIAADGVLKICDFGASRFHNHTTHMSLVGTFPWMAPEVIQSLPVSETCDTYSYGVVLWEMLTREVPFKGLEGLQVAWLVVEKNERLTIPSSCPRSFAELLHQCWEADAKKRPSFKQIISILESMSNDTSLPDKCNSFLHNKAEWRCEIEATLERLKKLERDLSFKEQELKERERRLKMWEQKLTEQSNTPLLPSFEIGAWTEDDVYCWVQQLVRKGDSSAEMSVYASLFKENNITGKRLLLLEEEDLKDMGIVSKGHIIHFKSAIEKLTHDYINLFHFPPLIKDSGGEPEENEEKIVNLELVFGFHLKPGTGPQDCKWKMYMEMDGDEIAITYIKDVTFNTNLPDAEILKMTKPPFVMEKWIVGIAKSQTVECTVTYESDVRTPKSTKHVHSIQWSRTKPQDEVKAVQLAIQTLFTNSDGNPGSRSDSSADCQWLDTLRMRQIASNTSLQRSQSNPILGSPFFSHFDGQDSYAAAVRRPQVPIKYQQITPVNQSRSSSPTQYGLTKNFSSLHLNSRDSGFSSGNTDTSSERGRYSDRSRNKYGRGSISLNSSPRGRYSGKSQHSTPSRGRYPGKFYRVSQSALNPHQSPDFKRSPRDLHQPNTIPGMPLHPETDSRASEEDSKVSEGGWTKVEYRKKPHRPSPAKTNKERARGDHRGWRNF [ZAK]”, for which, in the series with HeLa Kyoto [1], the “solubility change mitosis (log2)” value was found to be 0.649. Also, in the series with HeLa Kyoto [2], the “solubility in G1/S (log2)” value was -1.14. The thermal stability score was -0.231 in the series with HeLa Kyoto [4] (setting [5]) and -2.89 in the series on HeLa Kyoto [4] (cell cycle stage: mitosis).
The corresponding values for “MTGLYELVWRVLHALLCLHRTLTSWLRVRFGTWNWIWRRCCRAASAAVLAPLGFTLRKPPAVGRNRRHHRHPRGGSCLAAAHHRMRWRADGRSLEKLPVHMGLVITEVEQEPSFSDIASLVVWCMAVGISYISVYDHQGIFKRNNSRLMDEILKQQQELLGLDCSKYSPEFANSNDKDDQVLNCHLAVKVLSPEDGKADIVRAAQDFCQLVAQKQKRPTDLDVDTLASLLSSNGCPDPDLVLKFGPVDSTLGFLPWHIRLTEIVSLPSHLNISYEDFFSALRQYAACEQRLGK [NUS1]” are 0.162, 0.00319, -0.859 and 0.124.
Turning to “MTQPVPRLSVPAALALGSAALGAAFATGLFLGRRCPPWRGRREQCLLPPEDSRLWQYLLSRSMREHPALRSLRLLTLEQPQGDSMMTCEQAQLLANLARLIQAKKALDLGTFTGYSALALALALPADGRVVTCEVDAQPPELGRPLWRQAEAEHKIDLRLKPALETLDELLAAGEAGTFDVAVVDADKENCSAYYERCLQLLRPGGILAVLRVLWRGKVLQPPKGDVAAECVRNLNERIRRDVRVYISLLPLGDGLTLAFKI [COMTD1]”, in the series with HeLa Kyoto [1], the “solubility change mitosis (log2)” value worked out at 0.00811. Also, the “solubility in G1/S (log2)” value in the series on HeLa Kyoto [2] was determined as 0.16. The results for the thermal stability score with HeLa Kyoto [4] (setting [5]) and with HeLa Kyoto [4] (cell cycle stage: mitosis) were -0.487 and 0.44, respectively.
In the case of “MWDQRLVRLALLQHLRAFYGIKVKGVRGQCDRRRHETAATEIGGKIFGVPFNALPHSAVPEYGHIPSFLVDACTSLEDHIHTEGLFRKSGSVIRLKALKNKVDHGEGCLSSAPPCDIAGLLKQFFRELPEPILPADLHEALLKAQQLGTEEKNKATLLLSCLLADHTVHVLRYFFNFLRNVSLRSSENKMDSSNLAVIFAPNLLQTSEGHEKMSSNTEKKLRLQAAVVQTLIDYASDIGRVPDFILEKIPAMLGIDGLCATPSLEGFEEGEYETPGEYKRKRRQSVGDFVSGALNKFKPNRTPSITPQEERIAQLSESPVILTPNAKRTLPVDSSHGFSSKKRKSIKHNFNFELLPSNLFNSSSTPVSVHIDTSSEGSSQSSLSPVLIGGNHLITAGVPRRSKRIAGKKVCRVESGKAGCFSPKISHKEKVRRSLRLKFNLGKNGREVNGCSGVNRYESVGWRLANQQSLKNRIESVKTGLLFSPDVDEKLPKKGSEKISKSEETLLTPERLVGTNYRMSWTGPNNSSFQEVDANEASSMVENLEVENSLEPDIMVEKSPATSCELTPSNLNNKHNSNITSSPLSGDENNMTKETLVKVQKAFSESGSNLHALMNQRQSSVTNVGKVKLTEPSYLEDSPEENLFETNDLTIVESKEKYEHHTGKGEKCFSERDFSPLQTQTFNRETTIKCYSTQMKMEHEKDIHSNMPKDYLSKQEFSSDEEIKKQQSPKDKLNNKLKENENMMEGNLPKCAAHSKDEARSSFSQQSTCVVTNLSKPRPMRIAKQQSLETCEKTVSESSQMTEHRKVSDHIQWFNKLSLNEPNRIKVKSPLKFQRTPVRQSVRRINSLLEYSRQPTGHKLASLGDTASPLVKSVSCDGALSSCIESASKDSSVSCIKSGPKEQKSMSCEESNIGAISKSSMELPSKSFLKMRKHPDSVNASLRSTTVYKQKILSDGQVKVPLDDLTNHDIVKPVVNNNMGISSGINNRVLRRPSERGRAWYKGSPKHPIGKTQLLPTSKPVDL [ARHGAP11A]”, in the series on HeLa Kyoto [1], the “solubility change mitosis (log2)” value was -0.288. In addition, the “solubility in G1/S (log2)” value in the series on HeLa Kyoto [2] was -0.915. Moreover, the figures for the thermal stability score in the series with HeLa Kyoto [4] (setting [5]) and in the series on HeLa Kyoto [4] (cell cycle stage: mitosis) were -0.137 and -0.131, respectively.
As for NHS, the “solubility change mitosis (log2)” value in the series with HeLa Kyoto [1] is -0.00515. Further, the “solubility in G1/S (log2)” value with HeLa Kyoto [2] was -0.153. Moreover, the thermal stability score in the series with HeLa Kyoto [4] (setting [5]) worked out at 0.656; in the series with HeLa Kyoto [4] (cell cycle stage: mitosis), 0.325.
NPTN: the “solubility change mitosis (log2)” value in the series with HeLa Kyoto [1] amounted to 0.245. The “solubility in G1/S (log2)” value with HeLa Kyoto [2] came to 0.36. Moreover, the thermal stability score was -1.2 with HeLa Kyoto [4] (setting [5]) and -2.14 with HeLa Kyoto [4] (cell cycle stage: mitosis).
The corresponding values for PTEN are 0.174, -0.27, -0.257 and 0.0266.
For SACS, the “solubility change mitosis (log2)” value with HeLa Kyoto [1] is -0.045. The “solubility in G1/S (log2)” value in the series on HeLa Kyoto [2] is -0.294. Also, the thermal stability score is -0.0387 in the series with HeLa Kyoto [4] (setting [5]) and -0.338 in the series on HeLa Kyoto [4] (cell cycle stage: mitosis).
TMEM131: the “solubility change mitosis (log2)” value in the series on HeLa Kyoto [1] is -0.0264. In the series with HeLa Kyoto [2], the “solubility in G1/S (log2)” value was -0.0423. For the same substance, the thermal stability score in the series on HeLa Kyoto [4] (setting [5]) was -1.15; in the series with HeLa Kyoto [4] (cell cycle stage: mitosis), -1.6.
For UBR3, in the series on HeLa Kyoto [1], the “solubility change mitosis (log2)” value was -0.171. In the series with HeLa Kyoto [2], the “solubility in G1/S (log2)” value is -0.174. The values for the thermal stability score in the series with HeLa Kyoto [4] (setting [5]) and in the series on HeLa Kyoto [4] (cell cycle stage: mitosis) were -0.103 and -0.24, respectively.
VKORC1: the “solubility change mitosis (log2)” value in the series with HeLa Kyoto [1] was found to be 0.136. For the same substance, the “solubility in G1/S (log2)” value in the series on HeLa Kyoto [2] is -0.134. For the same substance, the thermal stability score in the series with HeLa Kyoto [4] (setting [5]) was -0.761; in the series on HeLa Kyoto [4] (cell cycle stage: mitosis) it was -1.55.

The values are drawn from the supplement of paper PMC5998384.
